The results in this text go back to patent US20250297004A1, “NECTIN-4 BINDING AGENTS” (INNATE PHARMA, priority 2022, published 2025).

Holding throughout (assay): Epitope mapping using Nectin-4 point mutants
Format in all cases: binding

For assay [1], the target named is T1, human Nectin-4 Mutant 3 (A76S/Q77R/E78A/S91N) (Homo sapiens, UniProt Q96NY8, A76S/E78A/Q77R/S91N).
T1 construct: expressed in transfected cells; host or cells: HEK293T
T1 sequence (Q96NY8 32-510 A76S/Q77R/E78A/S91N): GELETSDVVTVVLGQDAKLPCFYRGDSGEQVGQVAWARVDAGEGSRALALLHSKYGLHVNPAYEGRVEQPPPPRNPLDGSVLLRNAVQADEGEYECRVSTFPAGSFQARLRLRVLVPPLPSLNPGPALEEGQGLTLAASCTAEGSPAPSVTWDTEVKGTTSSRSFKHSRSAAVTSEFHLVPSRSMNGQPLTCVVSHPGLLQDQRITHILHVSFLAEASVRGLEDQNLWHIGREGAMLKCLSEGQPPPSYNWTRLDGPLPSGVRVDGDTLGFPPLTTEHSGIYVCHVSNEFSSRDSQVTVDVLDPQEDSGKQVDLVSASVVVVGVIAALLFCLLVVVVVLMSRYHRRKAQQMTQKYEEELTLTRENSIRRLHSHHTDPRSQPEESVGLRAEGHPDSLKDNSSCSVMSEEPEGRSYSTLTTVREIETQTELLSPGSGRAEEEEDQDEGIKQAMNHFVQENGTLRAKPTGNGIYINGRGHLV
The source says: (§1) Combined with the published structures of the Nectin-4 domains, Nectin-4 mutations at surface exposed amino acids residues were designed. Nectin-4 domain structure was modelled based on Protein Data Bank reference: 4FRW (domains V et C1). Human Nectin-4 used was NCBI Reference Sequence: NP_112178.2, mouse Nectin-4 used was NCBI Reference Sequence: AAL79833.1, cynomolgus Nectin-4 used was NCBI Reference Sequence: XP_005541277.1, rat Nectin-4 used was NCBI Reference Sequence: NP_001102546.1. The cells expressing the Nectin-4 mutants are then be used for testing anti-Nectin-4 antibodies for loss of binding to different Nectin-4 mutants to identify antibodies that bind to the same site on Nectin-4. […] FIGS. 8A and 8B show different view of a molecular model of the human Nectin-4 protein, indicating the position of substituted residues in mutants 1, 2, 3, 4, 5, 6, 7, 8 and 9.
(§2) Nectin-4 mutants were generated by PCR. The sequences amplified were run on agarose gel and purified using the Macherey Nagel PCR Clean-Up Gel Extraction kit. The purified PCR products generated for each mutant were then ligated into an expression vector, with the ClonTech InFusion system. The vectors containing the mutated sequences were prepared as Miniprep and sequenced. After sequencing, the vectors containing the mutated sequences were prepared as Midiprep using the Promega PureYield™ Plasmid Midiprep System. HEK293T cells were grown in DMEM medium (Invitrogen), transfected with vectors using Invitrogen's Lipofectamine 2000 and incubated at 37° C. in a CO2 incubator for 48 hours prior to testing for transgene expression. The targeted amino acid mutations are shown in Table 13 below, listing the residue present in wild-type Nectin-4/position of residue/residue present in mutant Nectin-4, with position reference being to the Nectin-4 protein with leader peptide shown in SEQ ID NO: 1.
(§3) (+) means that antibodies-Nectin-4 association occurs.

Assay [2] has as its target T2, human Nectin-4 Mutant 4 (A72P/G73N/G75S) (Homo sapiens, UniProt Q96NY8, A72P/G73N/G75S).
T2 construct: expressed in transfected cells; host or cells: HEK293T
T2 sequence (Q96NY8 32-510 A72P/G73N/G75S): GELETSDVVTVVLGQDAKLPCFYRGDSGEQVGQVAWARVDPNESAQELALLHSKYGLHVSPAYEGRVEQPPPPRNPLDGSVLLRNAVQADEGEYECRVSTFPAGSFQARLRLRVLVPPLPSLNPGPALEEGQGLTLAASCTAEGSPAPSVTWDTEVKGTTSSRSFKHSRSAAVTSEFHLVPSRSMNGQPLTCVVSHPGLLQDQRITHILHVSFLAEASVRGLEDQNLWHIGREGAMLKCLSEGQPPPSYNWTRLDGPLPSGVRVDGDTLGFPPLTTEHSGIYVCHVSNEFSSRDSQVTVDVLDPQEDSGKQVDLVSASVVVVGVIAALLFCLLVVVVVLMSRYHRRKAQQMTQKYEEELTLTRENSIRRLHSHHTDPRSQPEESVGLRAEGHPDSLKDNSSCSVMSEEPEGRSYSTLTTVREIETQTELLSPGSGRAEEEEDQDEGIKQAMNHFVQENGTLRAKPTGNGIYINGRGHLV
Source text: as §1, §2, §3

The target of assay [3] is T3, human Nectin-4 Mutant 7bis (A72P/G73N/K197T/S199A) (Homo sapiens, UniProt Q96NY8, A72P/G73N/K197T/S199A).
T3 construct: expressed in transfected cells; host or cells: HEK293T
T3 sequence (Q96NY8 32-510 A72P/G73N/K197T/S199A): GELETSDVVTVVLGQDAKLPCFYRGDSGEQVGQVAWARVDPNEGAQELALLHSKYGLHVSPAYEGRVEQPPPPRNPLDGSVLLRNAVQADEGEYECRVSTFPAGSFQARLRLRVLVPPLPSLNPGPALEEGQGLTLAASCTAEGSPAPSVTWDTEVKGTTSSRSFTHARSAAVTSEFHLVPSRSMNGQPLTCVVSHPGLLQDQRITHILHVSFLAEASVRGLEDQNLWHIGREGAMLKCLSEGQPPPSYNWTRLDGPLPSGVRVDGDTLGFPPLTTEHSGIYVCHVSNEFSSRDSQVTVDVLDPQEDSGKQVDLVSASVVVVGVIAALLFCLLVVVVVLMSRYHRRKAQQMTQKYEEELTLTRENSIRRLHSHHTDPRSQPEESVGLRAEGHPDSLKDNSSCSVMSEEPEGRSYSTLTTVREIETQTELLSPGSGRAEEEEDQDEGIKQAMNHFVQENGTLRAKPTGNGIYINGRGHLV
Source text: as §1, §2, §3

Assay [4] deals with T4, human Nectin-4 Mutant 9 (L150S/S152A/Q234R/I236S) (Homo sapiens, UniProt Q96NY8, I236S/L150S/Q234R/S152A).
T4 construct: expressed in transfected cells; host or cells: HEK293T
T4 sequence (Q96NY8 32-510 L150S/S152A/Q234R/I236S): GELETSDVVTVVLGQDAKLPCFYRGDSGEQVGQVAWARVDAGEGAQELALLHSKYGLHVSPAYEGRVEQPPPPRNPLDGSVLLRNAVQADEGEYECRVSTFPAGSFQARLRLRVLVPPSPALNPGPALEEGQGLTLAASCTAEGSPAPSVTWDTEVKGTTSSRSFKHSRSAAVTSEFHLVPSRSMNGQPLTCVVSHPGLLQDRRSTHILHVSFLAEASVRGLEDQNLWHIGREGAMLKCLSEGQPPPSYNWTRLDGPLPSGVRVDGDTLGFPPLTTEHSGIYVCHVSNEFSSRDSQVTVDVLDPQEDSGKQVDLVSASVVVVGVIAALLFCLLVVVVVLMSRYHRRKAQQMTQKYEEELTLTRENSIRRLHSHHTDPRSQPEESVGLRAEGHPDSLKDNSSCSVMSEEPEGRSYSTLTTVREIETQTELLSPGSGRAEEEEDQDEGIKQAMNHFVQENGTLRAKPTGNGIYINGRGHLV
Source text: as §1, §2, §3

B1: 5E7 (antibody, V domains shown)
VH: QVQLQQPGAELVKPGASVKLSCKASGYIFTSYWMHWVKQRPGQGLEWIGEIDPSDSYTNYNQKFKGKATLTLDKSSSTTYMQLSSLTSEDSAVYYCVRGYGNYGDYWGQGTTLTVSSASTKGP
VL: DVVMTQAAFSNPVTLGTSASISCRSSKSLLHSNGITYLYWYLQKPGQSPQLLIYQMSNLASGVPDRFSSSGSGTDFTLRISRVEAEDVGVYYCAQNLELPWTFGGGTKLEIKRTVAAP
Consider B1, for which the “association with Mutant 3” value in assay [1] is listed as “+”. Further, the “association with Mutant 4” value in assay [2] is on record as “+”. In addition, the “association with Mutant 7bis” value in assay [3] was “−”. In addition, the “association with Mutant 9” value in assay [4] is given as “+”.

B2: N41 (antibody, V domains shown)
VH: QVQLKQSGPGLVQPSQSLSITCTVSGFSLTNYGVHWVRQSPGKGLEWLGVIWSGGSTDYNAAFISRLSISKDTSKSQVFFKMNSLQADDTAIYYCARELIHAMDNWGQGTSVTVSS
VL: DIQMTQSPASLSVSVGETVTITCRASENIYSNLAWYQQKQGNSPQLLVFAATNLADGVPSRFSGSGSGTQYSLKINSLQSEDFGTYYCQHFWGTPTFGGGTKLEIK
As to B2, in assay [1], the “association with Mutant 3” value is given as “+”. The “association with Mutant 4” value in assay [2] is reported as “+”. In assay [3], the “association with Mutant 7bis” value is on record as “+”. Moreover, the “association with Mutant 9” value in assay [4] is recorded as “+”.
